The values below come from patent US20220098329A1 (Memorial Sloan Kettering, published 2022).

B1: 1+1T IgG-[L]-scFv variant, one anti-GD2 Fab and one anti-CD3 scFv in trans, second Fab irrelevant (anti-CD33) (bispecific antibody)
light 1: EIVMTQTPATLSVSAGERVTITCKASQSVSNDVTWYQQKPGQAPRLLIYSASNRYSGVPARFSGSGYGTEFTFTISSVQSEDFAVYFCQQDYSSFGQGTKLEIKRTVAAPSVFIFPPSDEQLKSGTASVVCLLNNFYPREAKVQWKVDNALQSGNSQESVTEQDSKDSTYSLSSTLTLSKADYEKHKVYACEVTHQGLSSPVTKSFNRGEC
heavy 1: not shown
light 2: EIVLTQSPATLSVSLGERATISCRASESVDNYGISFMNWFQQKPGQPPRLLIYAASNQGSGVPARFSGSGPGTDFTLTISSMEPEDFAMYFCQQSKEVPWTFGGGTKLEIKRTVAAPSVFIFPPSDEQLKSGTASVVCLLNNFYPREAKVQWKVDNALQSGNSQESVTEQDSKDSTYSLSSTLTLSKADYEKHKVYACEVTHQGLSSPVTKSFNRGECTSGGGGSGGGGSGGGGSQVQLVQSGGGVVQPGRSLRLSCKASGYTFTRYTMHWVRQAPGKCLEWIGYINPSRGYTNYNQKFKDRFTISRDNSKNTAFLQMDSLRPEDTGVYFCARYYDDHYSLDYWGQGTPVTVSSGGGGSGGGGSGGGGSGGGGSGGGGSGGGGSDIQMTQSPSSLSASVGDRVTITCSASSSVSYMNWYQQTPGKAPKRWIYDTSKLASGVPSRFSGSGSGTDYTFTISSLQPEDIATYYCQQWSSNPFTFGCGTKLQITR
heavy 2: not shown
B2: IgG-Het, heterodimeric IgG with one anti-GD2 Fab and one anti-CD3 Fab (1+1) (bispecific antibody)
light 1: B1 light 1
heavy 1: not shown
light 2: DIQMTQSPSSLSASVGDRVTITCSASSSVSYMNWYQQTPGKAPKRWIYDTSKLASGVPSRFSGSGSGTDYTFTISSLQPEDIATYYCQQWSSNPFTFGQGTKLQITRTVAAPSVFIFPPSDEQLKSGTASVVCLLNNFYPREAKVQWKVDNALQSGNSQESVTEQDSKDSTYSLSSTLTLSKADYEKHKVYACEVTHQGLSSPVTKSFNRGEC
heavy 2: not shown
notes: also called 1+1H; 1 + 1H
B3: 1+2 IgG-[L]-scFv variant, one anti-GD2 Fab, one irrelevant (anti-CD33) Fab, two anti-CD3 scFv (1(GD2)+2(CD3)) (bispecific antibody)
light 1: EIVMTQTPATLSVSAGERVTITCKASQSVSNDVTWYQQKPGQAPRLLIYSASNRYSGVPARFSGSGYGTEFTFTISSVQSEDFAVYFCQQDYSSFGQGTKLEIKRTVAAPSVFIFPPSDEQLKSGTASVVCLLNNFYPREAKVQWKVDNALQSGNSQESVTEQDSKDSTYSLSSTLTLSKADYEKHKVYACEVTHQGLSSPVTKSFNRGECTSGGGGSGGGGSGGGGSQVQLVQSGGGVVQPGRSLRLSCKASGYTFTRYTMHWVRQAPGKCLEWIGYINPSRGYTNYNQKFKDRFTISRDNSKNTAFLQMDSLRPEDTGVYFCARYYDDHYSLDYWGQGTPVTVSSGGGGSGGGGSGGGGSGGGGSGGGGSGGGGSDIQMTQSPSSLSASVGDRVTITCSASSSVSYMNWYQQTPGKAPKRWIYDTSKLASGVPSRFSGSGSGTDYTFTISSLQPEDIATYYCQQWSSNPFTFGCGTKLQITR
heavy 1: not shown
light 2: B1 light 2
heavy 2: not shown
notes: also called 1+2 BsAb
B4: 1+1C IgG-[L]-scFv variant, one anti-GD2 Fab and one anti-CD3 scFv in cis, second Fab irrelevant (anti-CD33) (bispecific antibody)
light 1: B3 light 1
heavy 1: not shown
light 2: EIVLTQSPATLSVSLGERATISCRASESVDNYGISFMNWFQQKPGQPPRLLIYAASNQGSGVPARFSGSGPGTDFTLTISSMEPEDFAMYFCQQSKEVPWTFGGGTKLEIKRTVAAPSVFIFPPSDEQLKSGTASVVCLLNNFYPREAKVQWKVDNALQSGNSQESVTEQDSKDSTYSLSSTLTLSKADYEKHKVYACEVTHQGLSSPVTKSFNRGEC
heavy 2: not shown
B5: 2+1 IgG-[L]-scFv variant, two anti-GD2 Fabs and one anti-CD3 scFv (2(GD2)+1(CD3)) (bispecific antibody)
light 1: B3 light 1
light 2: B1 light 1
heavy 1: QVQLVESGPGVVQPGRSLRISCAVSGFSVTNYGVHWVRQPPGKGLEWLGVIWAGGITNYNSAFMSRLTISKDNSKNTVYLQMNSLRAEDTAMYYCASRGGHYGYALDYWGQGTLVTVSSASTKGPSVFPLAPSSKSTSGGTAALGCLVKDYFPEPVTVSWNSGALTSGVHTFPAVLQSSGLYSLSSVVTVPSSSLGTQTYICNVNHKPSNTKVDKRVEPKSCDKTHTCPPCPAPELLGGPSVFLFPPKPKDTLMISRTPEVTCVVVDVSHEDPEVKFNWYVDGVEVHNAKTKPREEQYASTYRVVSVLTVLHQDWLNGKEYKCAVSNKALPAPIEKTISKAKGQPREPQVYTLPPSRDELTKNQVSLTCLVKGFYPSDIAVEWESNGQPENNYKTTPPVLDSDGSFLLYSKLTVDKSRWQQGNVFSCSVMHEALHNHYTQKSLSLSPGK
heavy 2: B5 heavy 1 with L407F, K411R
notes: Heterodimer made by Fab arm exchange; Choice of the first anti-GD2 set as for m1; also called 2+1 BsAb
B6: 2+2 IgG-[L]-scFv bispecific antibody, anti-GD2 Fab x anti-CD3 scFv (2(GD2)+2(CD3)) (bispecific antibody)
light: B3 light 1
heavy: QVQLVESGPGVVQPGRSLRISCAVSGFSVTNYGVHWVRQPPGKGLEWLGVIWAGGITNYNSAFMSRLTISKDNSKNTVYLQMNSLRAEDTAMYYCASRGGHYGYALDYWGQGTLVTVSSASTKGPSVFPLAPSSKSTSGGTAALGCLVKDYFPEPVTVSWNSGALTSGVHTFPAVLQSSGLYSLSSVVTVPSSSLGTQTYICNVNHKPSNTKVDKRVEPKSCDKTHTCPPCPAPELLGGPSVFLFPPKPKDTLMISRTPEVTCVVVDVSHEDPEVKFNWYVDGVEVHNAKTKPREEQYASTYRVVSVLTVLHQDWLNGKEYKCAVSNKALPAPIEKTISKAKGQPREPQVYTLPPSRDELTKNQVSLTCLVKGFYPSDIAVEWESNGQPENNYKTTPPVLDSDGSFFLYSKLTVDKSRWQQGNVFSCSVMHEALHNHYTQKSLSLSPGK
notes: Homodimeric format; also called 2+2 BsAb; parental 2+2
B7: 2+2 IgG-[L]-scFv, anti-CD33 Fab x anti-CD3 scFv (bispecific antibody)
light: B1 light 2
heavy: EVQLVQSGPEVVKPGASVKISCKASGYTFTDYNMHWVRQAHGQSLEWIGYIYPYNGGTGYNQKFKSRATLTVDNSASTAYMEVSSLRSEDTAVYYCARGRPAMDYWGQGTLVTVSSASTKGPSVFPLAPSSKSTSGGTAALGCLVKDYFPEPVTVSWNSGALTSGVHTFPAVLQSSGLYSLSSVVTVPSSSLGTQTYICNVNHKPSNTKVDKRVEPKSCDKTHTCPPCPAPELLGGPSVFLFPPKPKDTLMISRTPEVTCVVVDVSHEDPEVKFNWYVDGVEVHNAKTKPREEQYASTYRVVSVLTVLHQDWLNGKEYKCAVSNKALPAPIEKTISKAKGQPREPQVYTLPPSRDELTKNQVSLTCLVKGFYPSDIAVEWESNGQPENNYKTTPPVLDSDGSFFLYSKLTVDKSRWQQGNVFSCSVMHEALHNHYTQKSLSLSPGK
notes: also called 2+2 (CD33); anti-CD33/CD3 IgG-[L]-scFv

Positions count from the first letter of the chain named.

T2 sequence (P20138 18-364 limits assumed): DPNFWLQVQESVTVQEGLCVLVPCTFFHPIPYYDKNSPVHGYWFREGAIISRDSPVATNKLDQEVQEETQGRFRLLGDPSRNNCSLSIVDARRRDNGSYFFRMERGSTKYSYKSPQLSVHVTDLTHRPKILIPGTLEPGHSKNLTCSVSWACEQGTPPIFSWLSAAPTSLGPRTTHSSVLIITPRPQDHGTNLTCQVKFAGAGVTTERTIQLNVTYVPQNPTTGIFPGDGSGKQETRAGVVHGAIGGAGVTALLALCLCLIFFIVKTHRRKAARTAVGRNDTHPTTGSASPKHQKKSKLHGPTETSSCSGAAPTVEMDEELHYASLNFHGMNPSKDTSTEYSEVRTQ

The first test deals with T1, huCD3de antigen (human CD3 delta/epsilon, coated on SPR chip) (human, UniProt P07766 23-126; P04234 22-105).
T1 construct: Source and construct are not described; also called CD3 coated chips
T1 sequence (P07766 23-126, stated change not applied, chain 1 of 2): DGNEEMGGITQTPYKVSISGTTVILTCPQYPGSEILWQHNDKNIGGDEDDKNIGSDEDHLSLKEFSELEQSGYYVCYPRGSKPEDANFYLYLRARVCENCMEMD
T1 sequence (P04234 22-105, stated change not applied, chain 2 of 2): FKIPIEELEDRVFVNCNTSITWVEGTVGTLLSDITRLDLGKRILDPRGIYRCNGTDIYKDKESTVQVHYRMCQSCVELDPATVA
Kind of test: SPR (Biacore T200), huCD3de-coated chip.
Take B1: the “Fold Change (KD CD3, against 2+2)” value came out at 8.5 fold.

Consider B2, for which the “Fold Change (KD CD3, against 2+2)” value was found to be 6.8 fold.

Consider B3, for which the “Fold Change (KD CD3, against 2+2)” value worked out at 1 fold.

Take B4: the “Fold Change (KD CD3, against 2+2)” value was 11 fold.

B5: the “Fold Change (KD CD3, against 2+2)” value came out at 30.1 fold.

A further test has as its target T1, huCD3de antigen (human CD3 …). Briefly: SPR (Biacore T200), huCD3de-coated chip, BsAb titrated over chip, two-state reaction model. On the technique in general: SPR reads the build-up and loss of mass on a sensor chip optically.
What is called Kd is the constant that tells how readily two partners part at equilibrium. In the case of B1, the Kd is 88 nM.

B2 yielded a Kd of 70 nM.

With B6, the affinity, expressed as Kd, was 10 nM.

Turning to B3, the Kd worked out at 11 nM.

As for B4, the affinity, expressed as Kd, was 110 nM.

B5 had a Kd of 310 nM.

Another test concerns the target T2, CD33 on MOLM13-fluc cells (UniProt P20138 18-364, limits assumed).
T2 construct: whole, on cells; also called CD33(+) MOLM13-fluc
Kind of test: flow cytometry, CD33(+) MOLM13-fluc cells.
For the molecule B7, the binding result is listed as “binds”.
